Experimental data from patent publication US20050142131A1 (Eli Lilly, published 2005).

What was measured:
[1] = target: T1, Amyloid-beta 1-40 (UniProt P05067 672-711); assay: BIAcore 2000 SPR; antibody captured by anti-human Ig, Aβ flowed over; Aβ 1-40; monophasic
T1 construct: range 1-40; The range 1-40 counts on the Aβ peptide, not on the APP precursor; also called Aβ 1-40
Procedure: (§1) Antibody affinity (KD=Kd/Ka) was determined using a BIAcore biosensor 2000 and data analyzed with BIAevaluation (v. 3.1) software. A capture antibody (rabbit anti-mouse Ig or anti-human Ig) was coupled via free amine groups to carboxyl groups on flow cell 2 of a biosensor chip (CM5) using N-ethyl-N-dimethylaminopropyl carbodiimide and N-hydroxysuccinimide (EDC/NHS). A non-specific rabbit IgG was coupled to flow cell 1 as a background control. Monoclonal antibodies were captured to yield 300 resonance units (RU). […] To regenerate the chip, bound anti-Aβ antibody was eluted from the chip using a wash with glycine-HCl (pH 2). A control injection containing no amyloid-beta served as a control for baseline subtraction.

[2] = target: T2, human Aβ fragment 16-25 (human, UniProt P05067 687-696); assay: BIAcore, single concentration of peptide
T2 construct: range 16-25; also called human amyloid beta 16-25
T2 peptide (looked up): KLVFFAEDVG
Source text: (§2) All dilutions were made with HEPES buffered saline containing Tween 20. A single concentration of a variety of fragments of human Aβ or mouse Aβ 1-40 (BioSource International) was used.

[3] = target: T3, mouse Aβ 1-40 (mouse, UniProt P12023 672-711); assay: BIAcore, single concentration of peptide
T3 construct: range 1-40; The range counts on the Aβ peptide, not on the mouse APP precursor
T3 peptide (looked up): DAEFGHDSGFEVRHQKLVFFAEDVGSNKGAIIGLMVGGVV
Source text: as §2

[4] = target: T4, human amyloid beta fragment 1-20 (human, UniProt P05067 672-691); assay: BIAcore, single concentration of peptide
T4 construct: range 1-20; also called human Aβ 1-20
T4 peptide (looked up): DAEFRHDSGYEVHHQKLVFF
Source text: as §2

[5] = target: T5, human amyloid beta fragment 1-10 (human, UniProt P05067 672-681); assay: BIAcore, single concentration of peptide
T5 construct: range 1-10; also called human Aβ 1-10
T5 peptide (looked up): DAEFRHDSGY
Source text: as §2

[6] = target: T6, human Aβ fragment 10-20 (human, UniProt P05067 681-691); assay: BIAcore, single concentration of peptide
T6 construct: range 10-20; also called human amyloid beta 10-20
T6 peptide (looked up): YEVHHQKLVFF
Source text: as §2

[7] = target: T7, β-amyloid peptide (1-42) (UniProt P05067 672-713); assay: BIAcore 2000 SPR; antibody captured, Aβ flowed over; biphasic, first affinity; Aβ 1-42; biphasic, high-affinity component
T7 construct: range 1-42; The range 1-42 counts on the Aβ peptide, not on the APP precursor; also called Aβ 1-42; Amyloid-beta 1-42
Procedure: as §1

[8] = target: T7, β-amyloid peptide (1-42); assay: competitive ELISA on coated Aβ 1-42 against biotinylated Mu10D5; mean of three experiments (SD 0.6 µg/mL), second set; second set of three experiments (SD 0.6 µg/mL)
Procedure: (§3) After washing the wells with phosphate buffered saline (PBS) containing 0.1% Tween 20 (Washing Buffer) using an ELISA plate washer, the wells were blocked by adding 300 μL of SuperBlock reagent (Pierce) per well. After 30 minutes of blocking, the wells were washed with Washing Buffer and excess liquid was removed.
(§4) As a background control, 100 μl of ELISA Buffer was added. The ELISA plate was incubated at room temperature for 90 min. […] The plate was incubated at room temperature for 30 min and washed with Washing Buffer. For color development, 100 μl/well of ABTS Peroxidase Substrate (Kirkegaard & Perry Laboratories) was added. Color development was stopped by adding 100 μl/well of 2% oxalic acid. […] The absorbances were plotted against the log of the competitor concentration, curves were fit to the data points (using Prism) and the IC50 was determined for each antibody using methods well-known in the art.

[9] = target: T7, β-amyloid peptide (1-42); assay: BIAcore 2000 SPR; antibody captured, Aβ flowed over; biphasic, second affinity; Aβ 1-42; biphasic, low-affinity component
Procedure: as §1

[10] = target: T7, β-amyloid peptide (1-42); assay: competitive ELISA on coated Aβ 1-42 against biotinylated Mu10D5; mean of three experiments (SD 11.8 µg/mL), first set; first set of three experiments (SD 11.8 µg/mL)
Procedure: as §3, §4

Kd [1]: 209 nM | binding result [2]: no binding | binding result [3]: no binding | binding result [4]: binds | binding result [5]: binds | binding result [6]: no binding | Kd [7]: 0.19 nM | IC50 [8]: 16 µg/mL | Kd [9]: 1020 nM | IC50 [10]: 49.1 µg/mL
B1: humanized 10D5 antibody (antibody, human IgG1, kappa, V domains shown)
VH: QVTLKESGPVLVKPTETLTLTCTFSGFSLSTSGMGVSWIRQPPGKALEWLAHIYWDDDKRYNPSLKSRLTISKDTSKSQVVLTMTNMDPVDTATYYCVRRPITPVLVDAMDYWGQGTLVTVSS
VL: DVVMTQSPLSLPVTLGQPASISCRSSQNIIHSNGNTYLEWYLQKPGQSPRLLIYKVSNRFSGVPDRFSGSGSGTDFTLKISRVEAEDVGVYYCFQGSHVPLTFGGGTKVEIKR
notes: also called Hu10D5
